One molecule from patent publication US20160046678A1 (ZYNGENIA, published 2016) can be followed below.

This assay deals with T1, Angiopoietin-2 (Ang2) (human, UniProt O15123 19-496, biotin label in Examples 22-24).
T1 construct: also called rhAng2; recombinant Ang2
T1 sequence (looked up): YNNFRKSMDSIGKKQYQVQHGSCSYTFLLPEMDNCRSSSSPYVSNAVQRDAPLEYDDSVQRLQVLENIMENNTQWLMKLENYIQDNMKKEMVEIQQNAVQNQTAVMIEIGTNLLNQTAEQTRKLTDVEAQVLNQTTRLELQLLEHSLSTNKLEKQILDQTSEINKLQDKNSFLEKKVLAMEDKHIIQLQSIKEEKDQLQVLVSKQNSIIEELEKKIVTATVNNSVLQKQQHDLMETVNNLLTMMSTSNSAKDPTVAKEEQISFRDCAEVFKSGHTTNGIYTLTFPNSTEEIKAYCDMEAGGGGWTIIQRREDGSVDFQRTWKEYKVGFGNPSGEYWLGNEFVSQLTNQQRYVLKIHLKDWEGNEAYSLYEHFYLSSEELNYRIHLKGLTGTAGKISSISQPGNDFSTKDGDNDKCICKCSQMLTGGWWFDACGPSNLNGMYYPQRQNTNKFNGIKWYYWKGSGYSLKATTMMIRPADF
Nature of the assay: ELISA, MRD-MBP fusions on rhAng2-coated wells; references L17D and Lm32 KtoS MBP fusions. (ELISA stands for enzyme-linked immunosorbent assay.)

Ends that are not written are not given here.

B1: 2xLm32 MRD-MBP fusion (other)
chain: MGAQTNFMPMDNDELLLYEQFILQQGLEGGSGSTASSGSGSSLGAQTNFMPMDNDELLLY
modifications: also: fused to maltose binding protein, MRD downstream of malE, two copies of Lm32
notes: also called Lm32 dimer; LM-2x-32; not shown: MRD inserted downstream of malE
Take B1: the fold higher affinity was > 10 fold.
